According to PMC7505961:

Target: 145-Tailless nucleosome (145 bp Widom 601 DNA with tailless histone mutants H4-del 1-20, H3-del 1-37, H2A-del 1-15 and H2B-del 1-31), P06897
Assay: native gel or EMSA; FAM-labelled nucleosome (0.8 pmol; oligonucleosomes 0.1 pmol) mixed with different amounts of cGAS in 20 mM Tris-HCl pH 7.6, 60 mM NaCl, 5 mM MgCl2, total volume 10 ul; on ice 30 min; 1.5% agarose gel, 0.2x TBE; Kd from percent bound nucleosome against cGAS concentration
Details: remark: other sources report otherwise

B1: human cGAS (cGMP-AMP synthase), Q8N884 1-522 (enzyme)
chain: MQPWHGKAMQRASEAGATAPKASARNARGAPMDPTESPAAPEAALPKAGKFGPARKSGSRQKKSAPDTQERPPVRATGARAKKAPQRAQDTQPSDATSAPGAEGLEPPAAREPALSRAGSCRQRGARCSTKPRPPPGPWDVPSPGLPVSAPILVRRDAAPGASKLRAVLEKLKLSRDDISTAAGMVKGVVDHLLLRLKCDSAFRGVGLLNTGSYYEHVKISAPNEFDVMFKLEVPRIQLEEYSNTRAYYFVKFKRNPKENPLSQFLEGEILSASKMLSKFRKIIKEEINDIKDTDVIMKRKRGGSPAVTLLISEKISVDITLALESKSSWPASTQEGLRIQNWLSAKVRKQLRLKPFYLVPKHAKEGNGFQEETWRLSFSHIEKEILNNHGKSKTCCENKEEKCCRKDCLKLMKYLLEQLKERFKDKKHLDKFSSYHVKTAFFHVCTQNPQDSQWDRKDLGLCFDNCVTYFLQCLRTEKLENYFIPEFNLFSSNLIDKRSKEFLTKQIEYERNNEFPVFDEF
**Q.** For B1, which Kd is on record?
**A.** 79 nM
